According to publication PMC6477179, “FIP200 Claw Domain Binding to p62 Promotes Autophagosome Formation at Ubiquitin Condensates” (Molecular Cell, 2019):
Blank lines part the entries; values can stand above or below the binder they belong to.

B7: GFP-FIP200 CTR aa 1429-1594 (domain or fragment, human, UniProt Q8TDY2 1429-1594, looked up)
chain: ADEGRVDSAMETSMMSVQENIHMLSEEKQRIMLLERTLQLKEEENKRLNQRLMSQSMSSVSSRHSEKIAIRDFQVGDLVLIILDERHDNYVLFTVSPTLYFLHSESLPALDLKPGEGASGASRRPWVLGKVMEKEYCQAKKAQNRFKVPLGTKFYRVKAVSWNKKV
notes: FIP200 (RB1CC1), human, C-terminal region, residues 1429-1594; source: E. coli Rosetta (DE3) pLysS, purified (HisTrap, TEV, SEC); not shown: His6, N-terminal, cleaved; GFP, N-terminal, kept

Columns and labels:
[1] = biological target: B7; test: microscopy-based protein-protein interaction assay (bait on beads); GST-tagged bait on glutathione Sepharose 4B beads, 2-5 μM fluorescently labeled prey not washed away (equilibrium), 25 mM HEPES pH 7.5, 150 mM NaCl, 1 mM DTT, 30 min to 1 h at room temperature or 4°C; confocal or spinning disk microscopy; conditions: both partners purified
[2] = biological target: the molecule itself; test: SEC with right-angle light scattering; 100 μl of 3 mg/ml FIP200 CTR on Superdex S75 10/300 with RALS-refractive index detector; 25 mM HEPES pH 7.5, 150 mM NaCl
[3] = biological target: the molecule itself; test: crystal structure; FIP200 Claw aa 1494-1594, SeMet crystal, 1.56 Å, space group C2221, one monomer in the asymmetric unit; 0.1 M HEPES pH 7.4, 2 M ammonium sulfate
[4] = biological target: T1, GFP-FIP200 CTR aa 1458-1594 (human, UniProt Q8TDY2 1458-1594); test: microscopy-based protein-protein interaction assay (bait on beads); GST-tagged bait on glutathione Sepharose 4B beads, 2-5 μM fluorescently labeled prey not washed away (equilibrium), 25 mM HEPES pH 7.5, 150 mM NaCl, 1 mM DTT, 30 min to 1 h at room temperature or 4°C; confocal or spinning disk microscopy; conditions: both partners purified
T1 construct: FIP200 (RB1CC1), human, C-terminal region, residues 1458-1594; also called GFP-FIP200 CTR WT; WT GFP-FIP200 CTR; source: E. coli Rosetta (DE3) pLysS, purified (HisTrap, TEV, SEC); not shown: His6, N-terminal, cleaved; GFP, N-terminal, kept

[5] = biological target: T2, FITC-labeled full-length FIP200 (FITC-FIP200-MBP) (human, UniProt Q8TDY2 1-1594, FITC-LPETGG peptide joined to the N-terminal glycine by Δ59SortaseA (FITC on the N-terminus)); test: as above; conditions: both partners purified
T2 construct: FIP200 (RB1CC1), human, full length; pCAG vector; also called Gly-FIP200-MBP; source: HEK293-GnT1 suspension cells, purified (Glutathione Sepharose, TEV, amylose resin, Superose 6); not shown: GST, N-terminal, cleaved; MBP, C-terminal, kept

GFP-FIP200 CTR N1517F = biological target: T3, GFP-FIP200 CTR N1517F (human, UniProt Q8TDY2 1458-1594, N1517F); test: as above; conditions: both partners purified
T3 construct: FIP200 (RB1CC1), human, C-terminal region, residues 1458-1594; source: E. coli Rosetta (DE3) pLysS, purified (HisTrap, TEV, SEC); not shown: His6, N-terminal, cleaved; GFP, N-terminal, kept

mCherry-p62 wt [6] = biological target: T4, mCherry-p62 wt (human, UniProt Q13501 1-440); test: as above; conditions: both partners purified
T4 construct: p62/SQSTM1, human, full length; also called full-length mCherry-p62 WT; source: E. coli, purified as previously described (Wurzer et al., 2015)

mCherry-p62 LIRmut = biological target: T5, mCherry-p62 LIRmut (human, UniProt Q13501 1-440, residues 335-338 are mutated to Ala); test: as above; conditions: both partners purified
T5 construct: p62/SQSTM1, human, full length, LIR motif mutated; also called the LIR mutant; source: E. coli, purified as previously described (Wurzer et al., 2015)

mCherry-p62 wt [7] = biological target: T4, mCherry-p62 wt; test: microscopy-based protein-protein interaction assay (bait on beads); GSH beads coated with GST-2x ubiquitin, excess washed off, incubated with mCherry-p62 (2 μM) and GFP-FIP200 CTR (5 μM) for 1 h, imaged by microscopy; conditions: both partners purified

binding result [1]: binds
B1: GST-p62 aa334-356 (domain or fragment, human, UniProt Q13501 334-356, looked up)
chain: GDDDWTHLSSKEVDPSTGELQSL
notes: p62/SQSTM1, human, residues 334-356; also called pGEX-p62 aa334-356; source: E. coli Rosetta (DE3) pLysS, purified (GSTrap, SEC)

B2: FIP200 CTR (aa 1458-1594) (domain or fragment, human, UniProt Q8TDY2 1458-1594, looked up)
chain: RIMLLERTLQLKEEENKRLNQRLMSQSMSSVSSRHSEKIAIRDFQVGDLVLIILDERHDNYVLFTVSPTLYFLHSESLPALDLKPGEGASGASRRPWVLGKVMEKEYCQAKKAQNRFKVPLGTKFYRVKAVSWNKKV
notes: FIP200 (RB1CC1), human, C-terminal region, residues 1458-1594; source: E. coli Rosetta2 (DE3), purified (Ni-NTA, TEV, Superdex S75); not shown: His6, N-terminal, cleaved
stoichiometry N [2]: 2

B3: FIP200 Claw (aa 1494-1594) (domain or fragment, human, UniProt Q8TDY2 1494-1594, looked up)
chain: EKIAIRDFQVGDLVLIILDERHDNYVLFTVSPTLYFLHSESLPALDLKPGEGASGASRRPWVLGKVMEKEYCQAKKAQNRFKVPLGTKFYRVKAVSWNKKV
modifications: selenomethionine-substituted (crystal)
notes: FIP200 (RB1CC1), human, Claw domain, residues 1494-1594; one monomer in the asymmetric unit, dimer by a crystallographic 2-fold; also called isolated Claw domain; FIP200 Claw domain; source: E. coli BL21(DE3), purified (Ni-NTA, TEV, Superdex 75)
binding result [3]: binds

binding result [4]: binds
B4: GST-p62 FIR 3P (domain or fragment, human, UniProt Q13501 326-380, looked up)
chain: MESDNCSGGDDDWTHLSSKEVDPSTGELQSLQMPESEGPDDLDPDQEGPTGLKEA
notes: also called 3P (S365D, S366D, S370D); triple mutant; source: E. coli Rosetta (DE3) pLysS, purified (GSTrap, SEC)

binding result [5]: binds
binding result (GFP-FIP200 CTR N1517F): binds
binding result [4]: binds
B5: GST-p62 FIR 4P (domain or fragment, human, UniProt Q13501 326-380, looked up)
chain: MESDNCSGGDDDWTHLSSKEVDPDTGELQSLQMPESEGPDDLDPDQEGPTGLKEA
notes: also called 4P (S349D, S365D, S366D, S370D); quadruple mutant; source: E. coli Rosetta (DE3) pLysS, purified (GSTrap, SEC)

binding result (mCherry-p62 wt [6]): binds
binding result (mCherry-p62 LIRmut): binds
B6: GST-FIP200 CTR aa 1429-1594 (domain or fragment, human, UniProt Q8TDY2 1429-1594, looked up)
chain: ADEGRVDSAMETSMMSVQENIHMLSEEKQRIMLLERTLQLKEEENKRLNQRLMSQSMSSVSSRHSEKIAIRDFQVGDLVLIILDERHDNYVLFTVSPTLYFLHSESLPALDLKPGEGASGASRRPWVLGKVMEKEYCQAKKAQNRFKVPLGTKFYRVKAVSWNKKV
notes: FIP200 (RB1CC1), human, C-terminal region, residues 1429-1594; cloned in pGEX 4T1; also called FIP200 C-terminal region (CTR); source: E. coli Rosetta (DE3) pLysS, purified (GSTrap, SEC)

Binder: B7
binding result (mCherry-p62 wt [7]): binds
